“Also recorded” adds a separate entry of the source. Where two headings read alike, the source gives them in different places.

Results on two molecules are retold here after US8361965B2, “Recombinant chimeric protein of neutrophil inhibitory factor and hirugen, and pharmaceutical composition thereof” (Lunan Pharmaceutical Group Corporation, priority 2008, dated 2013).

Data set [1] deals with cerebral ischemia in rats subjected to middle cerebral artery occlusion. It counts as in vivo, Wistar rats. Conditions: for behavioral score / pathological section of brain (cerebral cortex nerve cells): 2 mg/kg bid caudal vein; for behavioral score: full score 11; for pathological section of brain (cerebral cortex nerve cells): HE, compared with model group.
For the next data set, the system named is leukocyte adhesion. Briefly: anti-leukocyte adhesion activity, in vitro comparative analysis. The format is cell-based. Particulars: in vitro.
In data set [2] the test system is experimental cerebral hematoma in rats. Briefly: effects on experimental cerebral hematoma in rats. Conditions: for behavioral score / Brain water content (%): 2 mg/kg bid caudal vein; for behavioral score: full score 11; for Brain water content (%): dry and wet method; for degree of pathological change, remaining cases: 2-3 cases per group. The format is in vivo, SD rats. Also on record: key to behavioral score: neurologic defect score, full score 11; higher = more severe disorder. The protocol:
SD rats were randomly divided into 4 groups (8 animals per group), including model group, NHH group, NIF group and TNHH group. The rats in each group were anesthetized by chloral hydrate, and then 0.1 ml blood was collected by amputation of tail. The rats were fixed in a stereotaxic apparatus. Median incision of scalp was performed and the periosteum was cut open to expose bregma. Subsequently, a small hole with a diameter of 1 mm was perforated for needle insertion of microsyringe fixed on the stereotaxic apparatus with insertion depth of 5.8 mm (i.e to the position of caudate nucleus) at the site which was 1 mm rearward to the bregma and 3 mm left to the midline, and then 0.1 ml autoblood was injected slowly. Neurological functional defect score was immediately evaluated based on the evaluation criterion after the animal got conscious. The animal with behavior score less than 11 was selected in this study. Behavior score evaluation was continuously carried out after the establishment of model till the end of the experiment.
The neurologic function defect score was evaluated at 5 time points of 4 h, 12 h, 24 h, 48 h and 72 h after the model establishment. Changes of brain water content and histopathological observation were performed at 72 h after the model establishment on sacrificed rats.
Corresponding medicaments (2 mg/kg, bid) were administered through the caudal vein to animals with administration volume of 1 ml/100 g in each group after model animal was successfully established (according to the score less than 11 based on the behavior score evaluation), while the model group received physiological saline in the corresponding volume.
The brain was taken out immediately after the sacrifice of animals, and then […] ectocinerea (cortex was removed) at the edge of haematoma was collected. The brain water content was determined using dry and wet method based on the following formula: Brain water content=(wet weight−dry weight)/wet weight×100%
The brain was immediately taken out by decollation at selected time points, and it was sliced up to be 2 mm thick along the coronal section and then fixed in 10% formaldehyde. The slices were stained by regular HE and mounted. Then the pathological changes occurred in pathological region and the neighboring brain tissues were observed.
Evaluation was performed at the time of 4 h, 12 h, 24 h, 48 h and 72 h after surgery. The method was described as follows:
The flection of forelimbs was observed by lifting the rat by its tail. If the forelimbs symmetrically extended toward the floor, the score was 0. While if wrist flection, or elbow inflection, or internal rotation of shoulder, or both elbow inflection and internal rotation of shoulder occurred to forelimbs of the rat on the opposite side of the surgery part, it was evaluated as scores of 1, 2, 3 and 4, respectively.
The animal was placed on flat floor, and then both shoulders were pushed to move towards the opposite side to examine the resistance. If the resistances on both sides were equal and forceful, it was evaluated as 0. While if the resistance decreased slightly, mildly or severely when pushed to the opposite side of the surgery part, it was evaluated as 1, 2 or 3, respectively.
Both forelimbs of the animal were placed on a metal mesh to observe the muscular tension. The rat with equal and forceful muscular tension of both forelimbs was evaluated as 0. In the same way, the rat was evaluated as 1, 2 or 3, respectively with the reduction of muscular tension on the opposite side of the surgery part mentioned above.
The animal tended to keep turning around to one side was evaluated as 1. Based on the evaluation criterion (with full score of 11), the higher the score was evaluated, the more severe the behavior disorder was.

Another data set deals with thrombin (Homo sapiens, UniProt P00734). Briefly: antithrombin activity, in vitro comparative analysis. The format is biochemical. Also on record: TNHH-G15/n3 and TNHH have the same antithrombin activity.
Where [3] appears, read: 2 mg/kg bid, brain pathological section.

B1: NHH: bifunctional chimeric protein NIF-(Gly)5-hirugen, 274 amino acids, of Chinese patent application 031011551; control protein (protein)
chain: NEHNLRCPQNGTEMPGFNDSIRLQFLAMHNGYRSKLALGHISITEESESDDDDDFGFLPDFAPRASKMRYLEYDCEAEKSAYMSARNCSDSSSPPEGYDENKYIFENSNNISEAALKAMISWAKEAFNLNKTKEGEGVLYRSNHDISNFANLAWDAREKFGCAVVNCPLGEIDDETNHDGETYATTIHVVCHYPKINKTEGQPIYKVGTPCDDCSEYTKKADNTTSADPVCIPDDGVCFIGSKADYDSKEFYRFRELGGGGGNGDFEEIPEEYL
With B1, the behavioral score in data set [1] (4 h) stood at 8.2 ± 1.7; in data set [1] (8 h), 8.2 ± 1.7; in data set [1] (24 h), 8.0 ± 1.4; in data set [1] (48 h), 6.5 ± 1.4; in data set [1] (72 h), 5.7 ± 1.2; in data set [2] (4 h), 2.14 ± 0.69. The behavioral score in data set [2] (12 h) was found to be 1.86 ± 0.90; in data set [2] (24 h), 2.43 ± 1.00; in data set [2] (48 h), 2.57 ± 0.13; in data set [2] (72 h) it was 3.57 ± 1.72. In addition, the “pathological section of brain (cerebral cortex nerve cells)” value in data set [1] was “less pathological changes; also recorded: less regular arrangements, a portion of deeply stained nucleus, and some cytoplasmic shrinkage or disappearance”. Besides, in data set [1] (72 h), the “Cerebral infarction volume (%)” value amounted to 25.2 ± 5.2 %. The same molecule gave an anti-leukocyte adhesion activity in the data set with leukocyte adhesion of 650 Unit/mg. Moreover, the “Brain water content (%)” value in data set [2] (72 h) turned out to be 78.66 ± 0.55 %. Also, the “degree of pathological change, remaining cases” value in data set [2] (setting [3]) was “+→++”.

B2: NIF: Neutrophil inhibitory factor, 257 amino acids; prepared by Chongqing Fujin Biology and Medicine Company (protein)
chain: NEHNLRCPQNGTEMPGFNDSIRLQFLAMHNGYRSKLALGHISITEESESDDDDDFGFLPDFAPRASKMRYLEYDCEAEKSAYMSARNCSDSSSPPEGYDENKYIFENSNNISEAALKAMISWAKEAFNLNKTKEGEGVLYRSNHDISNFANLAWDAREKFGCAVVNCPLGEIDDETNHDGETYATTIHVVCHYPKINKTEGQPIYKVGTPCDDCSEYTKKADNTTSADPVCIPDDGVCFIGSKADYDSKEFYRFREL
As to B2, in the data set with thrombin, the antithrombin activity entry is “None”. The behavioral score in data set [1] (4 h) amounted to 6.2 ± 0.8; in data set [1] (8 h), 6.5 ± 1.2; in data set [1] (24 h) it was 5.5 ± 0.5; in data set [1] (48 h), 5.5 ± 0.4; in data set [1] (72 h) it was 5.5 ± 0.5; in data set [2] (4 h), 1.86 ± 0.90. For the same molecule, the behavioral score in data set [2] (12 h) came out at 2.14 ± 0.90; in data set [2] (24 h), 2.43 ± 0.53; in data set [2] (48 h), 3.14 ± 0.90; in data set [2] (72 h), 4.14 ± 1.68. Moreover, the “pathological section of brain (cerebral cortex nerve cells)” value in data set [1] is “less pathological changes; also recorded: less regular arrangements, a portion of deeply stained nucleus, and some cytoplasmic shrinkage or disappearance”. Moreover, in data set [1] (72 h), the “Cerebral infarction volume (%)” value is recorded as 24.9 ± 9.6 %. The anti-leukocyte adhesion activity in the data set on leukocyte adhesion was 750 Unit/mg. For the same molecule, the “Brain water content (%)” value in data set [2] (72 h) is 79.36 ± 0.47 %. Also, the “degree of pathological change, remaining cases” value in data set [2] (setting [3]) is recorded as “+→++”. For the same molecule, the “degree of pathological change, most cases” value in data set [2] (2 mg/kg bid, brain pathological section, model group mostly ++→+++) is listed as “±→+”.
